The values that follow come from US20180092961.

Series [1] concerns the target calf thymus histone H4 (Roche) (UniProt P62803).
Series [2] deals with calf thymus histone H3 (Roche) (UniProt P68432).
Series [3] addresses murine histone H4 released from activated RAW264.7 macrophages (UniProt P62806).
In series [4] the test system is murine histone H2A released from activated RAW264.7 macrophages.
The target in a further series is murine histone H3 (UniProt P68433).

As for “human recombinant activated protein C (Xigris)”, in series [1], the “cleavage in a purified system, SDS-PAGE” value is “APC cleaved histone H3 and H4 in a dose dependent fashion”; the “cleavage, SDS-PAGE” value is “Purified histone H4 was also cleaved by APC and a cluster of 4-7 KD fragments could be found on SDS-PAGE”. Moreover, the “cleavage in a purified system, SDS-PAGE” value in series [2] was “APC cleaved histone H3 and H4 in a dose dependent fashion”. In addition, in series [3], the “cleavage, Western blot of conditioned medium” value was “histone H4 was released into the conditioned medium and was cleaved by APC”; the “new protein bands in conditioned medium in the presence of APC, Edman sequencing” value was “N-terminal sequence of the 10 kD band protein which matches the murine histone H4 internal sequence (Val21-Ile34)”. Moreover, in series [4], the “new protein bands in conditioned medium in the presence of APC, MS/MS after tryptic digestion” value was “three peptide sequences ... in this protein band that matchs the murine histone H2A protein sequence (amino acids 21-29, 82-88 and 100-118)”. Further, the “new protein bands in conditioned medium in the presence of APC, Edman sequencing” value with murine histone H3 is listed as “The N-terminal sequence of the 13 kD band protein was KSAPATGGV (SEQ ID NO:15) which matches the murine histone H3 internal sequence (Lys27-Lys36)”.
